Data on two molecules can be found in PMC2425495 (Nucleic Acids Research, 2008).

The data set “crystal structure” deals with the molecule itself. The experiment in a line: crystal structure.
A further data set concerns the target T1, HutP (V51I) (Bacillus subtilis, UniProt P10943 1-148, V51I).
T1 sequence: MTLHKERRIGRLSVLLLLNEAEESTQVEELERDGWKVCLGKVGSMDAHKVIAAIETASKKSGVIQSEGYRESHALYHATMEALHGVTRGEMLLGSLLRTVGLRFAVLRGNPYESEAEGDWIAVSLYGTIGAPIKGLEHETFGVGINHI
Put plainly: EMSA. A general note: Mobility shift assays separate free from complexed probe on a gel.

By stoichiometry N is commonly meant the number of molecules, sites or subunits per partner or assembly.

B1: HutP (Val 51 Ile mutant), anti-termination protein of the hut operon (natural protein, Bacillus subtilis)
chain: TLHKERRIGRLSVLLLLNEAEESTQVEELERDGWKVCLGKVGSMDAHKVIAAIETASKKSGVIQSEGYRESHALYHATMEALHGVTRGEMLLGSLLRTVGLRFAVLRGNPYESEAEGDWIAVSLYGTIGAPIKGLEHETFGVGINHI
Consider B1, for which the “stoichiometry N” value in “crystal structure” is 6.

B2: 21-mer RNA (ssRNA)
RNA: UUUAGUUUUUAGUUUUUAGUU
Take B2: the binding result with HutP (V51I) is “binds”.
